Laboratory results taken from publication PMC12199398, “Manipulating the Light Systemic Signal HY5 Greatly Improve Fruit Quality in Tomato”.

Target: T1, HY5 (His-HY5) (Solanum lycopersicum (tomato), UniProt Q9SM50 1-158)
T1 sequence: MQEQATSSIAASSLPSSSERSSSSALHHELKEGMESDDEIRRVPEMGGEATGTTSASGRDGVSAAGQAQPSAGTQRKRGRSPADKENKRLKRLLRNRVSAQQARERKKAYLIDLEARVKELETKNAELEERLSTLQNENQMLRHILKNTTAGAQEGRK
Experiment: EMSA; LightShift Chemiluminescent EMSA Kit (Thermo 20148); buffer, salt, pH and temperature not stated
Conditions: protein: recombinant; tags: His (pET-32a); chain copies: 2; blunt

Binder	binding result
PSY1 Z-box probe (dsDNA) DNA 1: GAAATCTACGTGTCTTAA DNA 2: TTAAGACACGTAGATTTC	binds
PDS C/G-box probe (dsDNA) DNA 1: TGGTGGGACGTGTCAAATT DNA 2: AATTTGACACGTCCCACCA	binds
VI ACE probe (dsDNA) DNA 1: AAGAAAAAAAATGACGTTTTTCCCCTTATT DNA 2: AATAAGGGGAAAAACGTCATTTTTTTTCTT	binds
SS1 ACE probe (dsDNA) DNA 1: CACCCTTTAGACGTATTACAGTAG DNA 2: CTACTGTAATACGTCTAAAGGGTG	binds
SS7 A-box probe (dsDNA) DNA 1: GCCCGGTGTCTACGTAAGATTGACAG DNA 2: CTGTCAATCTTACGTAGACACCGGGC	binds
LIN5 ACE probe (dsDNA) DNA 1: GTAAATTATTACGTCAGGCTTTAT DNA 2: ATAAAGCCTGACGTAATAATTTAC	binds
LIN6 A-box probe (dsDNA) DNA 1: CGCAATTAAATACGTAAGGGCTTTGA DNA 2: TCAAAGCCCTTACGTATTTAATTGCG	binds
